Assay results reported in article doi:10.1101/2020.10.06.328377.

How the values were obtained:
[1] = molecular target: MsSepF_(core) (Methanobrevibacter smithii SepF, C-terminal FtsZ-binding core, amino acids 54 to 149) (Methanobrevibacter smithii)
[2] = molecular target: MsSepF_(core) (Methanobrevibacter smithii SepF, C-terminal FtsZ-binding core, amino acids 54 to 149) (Methanobrevibacter smithii); assay: thermal shift assay

stoichiometry N [1] | melting temperature of MsSepFcore upon addition of MsFtsZCTD (70.6 °C without) [2] | Molecule
2 |  | MsSepF_(core) (Methanobrevibacter smithii SepF, C-terminal FtsZ-binding core, amino acids 54 to 149) (domain or fragment)
 | 82.3 °C | NEDQLDDFIDGIF [FtsZCTD peptide (C-terminal domain of M. smithii FtsZ)]
